Reference: US20240124560A1

Key:
Experiment in all cases: cell-based or functional assay
[1] = target: HIV-1 Env of NAC_ADA (HIV-1)
[2] = target: HIV-1 Env of NAC_REJO.67 (HIV-1)
[3] = target: HIV-1 Env of NIH-003_SC422661.8 (HIV-1)
[4] = target: HIV-1 Env of NIH-012_1012.11.TC21.3257 (HIV-1)
[5] = target: HIV-1 Env of NIH-014_6244.13.B5.4567 (HIV-1)
[6] = target: HIV-1 Env of NIH-021_ZM214M.PL15 (HIV-1)
[7] = target: HIV-1 Env of NIH-036_Ce2010 F5 (HIV-1)
[8] = target: HIV-1 Env of NIH-039_Ce2060 G9 (HIV-1)
[9] = target: HIV-1 Env of NIH-045_7030102001E5(Rev.) (HIV-1)
[10] = target: HIV-1 Env of NIH-051_CNE17 (HIV-1)
[11] = target: HIV-1 Env of NIH-059_Q461ENVe2 (HIV-1)
[12] = target: HIV-1 Env of NIH-065_191955 A11 (HIV-1)
[13] = target: HIV-1 Env of NIH-070_R2184.c04 (HIV-1)
[14] = target: HIV-1 Env of NIH-074_C4118.c09 (HIV-1)
[15] = target: HIV-1 Env of NIH-077_BJOX009000.02.4 (HIV-1)
[16] = target: HIV-1 Env of NIH-096_6952.v1.c20 (HIV-1)
[17] = target: HIV-1 Env of NIH-099_3301.v1.c24 (HIV-1)
[18] = target: HIV-1 Env of NIH-101_6540.v4.c1 (HIV-1)
[19] = target: HIV-1 Env of NIH-102_6545.v4.c1 (HIV-1)
[20] = target: HIV-1 Env of NIH-106_T250.4 (HIV-1)
[21] = target: HIV-1 Env of isolate NIH-082_X1193 c1 (HIV-1)
[22] = target: HIV-1 Env of isolate NIH-091_231965.c01 (HIV-1)
[23] = target: HIV-1 Env of isolate NIH-098_89.F1 2 25 (HIV-1)
[24] = target: HIV-1 Env of pseudovirus NAC_89.6 (HIV-1)
[25] = target: HIV-1 Env of pseudovirus NAC_92BR020 (HIV-1)
[26] = target: HIV-1 Env of pseudovirus NAC_92TH021 (HIV-1)
[27] = target: HIV-1 Env of pseudovirus NAC_94UG103 (HIV-1)
[28] = target: HIV-1 Env of pseudovirus NAC_IAVIC22 (HIV-1)
[29] = target: HIV-1 Env of pseudovirus NIH-009_1006.11.C3.1601 (HIV-1)
[30] = target: HIV-1 Env of pseudovirus NIH-010_1054.07.TC4.1499 (HIV-1)
[31] = target: HIV-1 Env of pseudovirus NIH-014_6244.13.B5.4567 (HIV-1)
[32] = target: HIV-1 Env of pseudovirus NIH-016_SC05.8C11.2344 (HIV-1)
[33] = target: HIV-1 Env of pseudovirus NIH-022_ZM233M.PB6 (HIV-1)
[34] = target: HIV-1 Env of pseudovirus NIH-025_ZM109F.PB4 (HIV-1)
[35] = target: HIV-1 Env of pseudovirus NIH-047_Ce704809221 1B3 (HIV-1)
[36] = target: HIV-1 Env of pseudovirus NIH-050_CNE21 (HIV-1)
[37] = target: HIV-1 Env of pseudovirus NIH-075_CNE8 (HIV-1)
[38] = target: HIV-1 Env of pseudovirus NIH-076_CNE5 (HIV-1)
[39] = target: HIV-1 Env of pseudovirus NIH-080_BJOX025000.01.1 (HIV-1)
[40] = target: HIV-1 Env of pseudovirus NIH-087_P1981 C5 3 (clade G) (HIV-1)
[41] = target: HIV-1 Env of pseudovirus NIH-090_A07412M1.vrc12 (clade D) (HIV-1)
[42] = target: HIV-1 Env of pseudovirus NIH-098_89.F1 2 25 (clade CD) (HIV-1)
[43] = target: HIV-1 Env of pseudovirus NIH-106_T250.4 (HIV-1)
[44] = target: HIV-1 Env of pseudovirus NIH-107_T251.18 (HIV-1)
[45] = target: HIV-1 Env of pseudovirus NIH-115_928.28 (HIV-1)
[46] = target: envelope protein of control pseudovirus NAC_AMLV

## VRC01 (antibody)
[1]
  IC80 neutralization: 1.31 µg/mL
[2]
  IC80 neutralization: 0.414 µg/mL
[3]
  IC80 neutralization: 0.481 µg/mL
[4]
  IC80 neutralization: 0.318 µg/mL
[5]
  IC80 neutralization: 0.193 µg/mL
[6]
  IC80 neutralization: 2.42 µg/mL
[7]
  IC80 neutralization: 0.625 µg/mL
[8]
  IC80 neutralization: 0.45 µg/mL
[9]
  IC80 neutralization: 1.49 µg/mL
[10]
  IC80 neutralization: 0.904 µg/mL
[11]
  IC80 neutralization: 0.776 µg/mL
[12]
  IC80 neutralization: 0.467 µg/mL
[13]
  IC80 neutralization: 0.413 µg/mL
[14]
  IC80 neutralization: 0.202 µg/mL
[15]
  IC80 neutralization: 2.34 µg/mL
[16]
  IC80 neutralization: 0.097 µg/mL
[17]
  IC80 neutralization: 0.463 µg/mL
[18]
  IC80 neutralization: > 50 µg/mL
[19]
  IC80 neutralization: > 50 µg/mL
[20]
  IC80 neutralization: > 50 µg/mL
[21]
  IC80 (µg/ml), TZM-bl pseudovirus neutralization: 0.408 µg/mL
[22]
  IC80 (µg/ml), TZM-bl pseudovirus neutralization: 0.743 µg/mL
[23]
  IC80 (µg/ml), TZM-bl pseudovirus neutralization: > 50 µg/mL
[24]
  neutralization IC50: 0.807 µg/mL
[25]
  neutralization IC50: 0.059 µg/mL
[26]
  neutralization IC50: 0.324 µg/mL
[27]
  neutralization IC50: 0.187 µg/mL
[28]
  neutralization IC50: 0.348 µg/mL
[29]
  neutralization IC50: 0.145 µg/mL
[30]
  neutralization IC50: 0.909 µg/mL
[31]
  neutralization IC50: 0.045 µg/mL
[32]
  neutralization IC50: 0.508 µg/mL
[33]
  neutralization IC50: 1.41 µg/mL
[34]
  neutralization IC50: 0.074 µg/mL
[35]
  neutralization IC50: 0.32 µg/mL
[36]
  neutralization IC50: 0.212 µg/mL
[37]
  neutralization IC50: 0.126 µg/mL
[38]
  neutralization IC50: 0.059 µg/mL
[39]
  neutralization IC50: 6.04 µg/mL
[40]
  IC50 (µg/ml), TZM-bl cell neutralization assay, pseudovirus: 0.203 µg/mL
[41]
  IC50 (µg/ml), TZM-bl cell neutralization assay, pseudovirus: 0.051 µg/mL
[42]
  IC50 (µg/ml), TZM-bl cell neutralization assay, pseudovirus: > 50 µg/mL
[43]
  neutralization IC50: > 50 µg/mL
[44]
  neutralization IC50: 2.02 µg/mL
[45]
  neutralization IC50: 0.249 µg/mL
[46]
  IC50 (µg/ml), TZM-bl cell neutralization assay, control pseudovirus: > 50 µg/mL
  IC80 (µg/ml), TZM-bl pseudovirus neutralization: > 50 µg/mL

## PGZL1 (antibody)
[1]
  IC80 neutralization: 21.8 µg/mL
[2]
  IC80 neutralization: 40.2 µg/mL
[3]
  IC80 neutralization: > 50 µg/mL
[4]
  IC80 neutralization: > 50 µg/mL
[5]
  IC80 neutralization: 5.19 µg/mL
[6]
  IC80 neutralization: > 50 µg/mL
[7]
  IC80 neutralization: > 50 µg/mL
[8]
  IC80 neutralization: > 50 µg/mL
[9]
  IC80 neutralization: > 50 µg/mL
[10]
  IC80 neutralization: 48.6 µg/mL
[11]
  IC80 neutralization: > 50 µg/mL
[12]
  IC80 neutralization: 8.56 µg/mL
[13]
  IC80 neutralization: > 50 µg/mL
[14]
  IC80 neutralization: 33.3 µg/mL
[15]
  IC80 neutralization: 15.8 µg/mL
[16]
  IC80 neutralization: 4.7 µg/mL
[17]
  IC80 neutralization: > 50 µg/mL
[18]
  IC80 neutralization: > 50 µg/mL
[19]
  IC80 neutralization: > 50 µg/mL
[20]
  IC80 neutralization: > 50 µg/mL
[21]
  IC80 (µg/ml), TZM-bl pseudovirus neutralization: 21.3 µg/mL
[22]
  IC80 (µg/ml), TZM-bl pseudovirus neutralization: > 50 µg/mL
[23]
  IC80 (µg/ml), TZM-bl pseudovirus neutralization: > 50 µg/mL
[24]
  neutralization IC50: 25.3 µg/mL
[25]
  neutralization IC50: > 50 µg/mL
[26]
  neutralization IC50: 2.12 µg/mL
[27]
  neutralization IC50: 24.1 µg/mL
[28]
  neutralization IC50: 15.2 µg/mL
[29]
  neutralization IC50: 24.6 µg/mL
[30]
  neutralization IC50: 5.15 µg/mL
[31]
  neutralization IC50: 1.31 µg/mL
[32]
  neutralization IC50: 5.77 µg/mL
[33]
  neutralization IC50: 5.9 µg/mL
[34]
  neutralization IC50: 7.36 µg/mL
[35]
  neutralization IC50: 0.738 µg/mL
[36]
  neutralization IC50: 4.23 µg/mL
[37]
  neutralization IC50: 0.247 µg/mL
[38]
  neutralization IC50: 24.6 µg/mL
[39]
  neutralization IC50: 7.13 µg/mL
[40]
  IC50 (µg/ml), TZM-bl cell neutralization assay, pseudovirus: 1.39 µg/mL
[41]
  IC50 (µg/ml), TZM-bl cell neutralization assay, pseudovirus: 13.9 µg/mL
[42]
  IC50 (µg/ml), TZM-bl cell neutralization assay, pseudovirus: > 50 µg/mL
[43]
  neutralization IC50: 13.9 µg/mL
[44]
  neutralization IC50: 43 µg/mL
[45]
  neutralization IC50: 1.38 µg/mL
[46]
  IC50 (µg/ml), TZM-bl cell neutralization assay, control pseudovirus: > 50 µg/mL
  IC80 (µg/ml), TZM-bl pseudovirus neutralization: > 50 µg/mL

## 4E10 (antibody)
[1]
  IC80 neutralization: 3.34 µg/mL
[2]
  IC80 neutralization: 8.62 µg/mL
[3]
  IC80 neutralization: 11.1 µg/mL
[4]
  IC80 neutralization: 8.25 µg/mL
[5]
  IC80 neutralization: 0.373 µg/mL
[6]
  IC80 neutralization: 21.2 µg/mL
[7]
  IC80 neutralization: > 50 µg/mL
[8]
  IC80 neutralization: 5.1 µg/mL
[9]
  IC80 neutralization: 15.7 µg/mL
[10]
  IC80 neutralization: 2.23 µg/mL
[11]
  IC80 neutralization: 9.31 µg/mL
[12]
  IC80 neutralization: 0.157 µg/mL
[13]
  IC80 neutralization: 0.762 µg/mL
[14]
  IC80 neutralization: 1.17 µg/mL
[15]
  IC80 neutralization: 1.62 µg/mL
[16]
  IC80 neutralization: 3.5 µg/mL
[17]
  IC80 neutralization: > 50 µg/mL
[18]
  IC80 neutralization: 36.1 µg/mL
[19]
  IC80 neutralization: 13.3 µg/mL
[20]
  IC80 neutralization: 3.42 µg/mL
[21]
  IC80 (µg/ml), TZM-bl pseudovirus neutralization: 1.43 µg/mL
[22]
  IC80 (µg/ml), TZM-bl pseudovirus neutralization: > 50 µg/mL
[23]
  IC80 (µg/ml), TZM-bl pseudovirus neutralization: 21.7 µg/mL
[24]
  neutralization IC50: 2.77 µg/mL
[25]
  neutralization IC50: 2.57 µg/mL
[26]
  neutralization IC50: 0.348 µg/mL
[27]
  neutralization IC50: 1.77 µg/mL
[28]
  neutralization IC50: 1.21 µg/mL
[29]
  neutralization IC50: 5.66 µg/mL
[30]
  neutralization IC50: 1.35 µg/mL
[31]
  neutralization IC50: 0.077 µg/mL
[32]
  neutralization IC50: 0.828 µg/mL
[33]
  neutralization IC50: 1.05 µg/mL
[34]
  neutralization IC50: 0.703 µg/mL
[35]
  neutralization IC50: 0.134 µg/mL
[36]
  neutralization IC50: 0.513 µg/mL
[37]
  neutralization IC50: 0.087 µg/mL
[38]
  neutralization IC50: 1.34 µg/mL
[39]
  neutralization IC50: 0.377 µg/mL
[40]
  IC50 (µg/ml), TZM-bl cell neutralization assay, pseudovirus: 0.099 µg/mL
[41]
  IC50 (µg/ml), TZM-bl cell neutralization assay, pseudovirus: 2.58 µg/mL
[42]
  IC50 (µg/ml), TZM-bl cell neutralization assay, pseudovirus: 5.11 µg/mL
[43]
  neutralization IC50: 0.756 µg/mL
[44]
  neutralization IC50: 0.905 µg/mL
[45]
  neutralization IC50: 0.112 µg/mL
[46]
  IC50 (µg/ml), TZM-bl cell neutralization assay, control pseudovirus: > 50 µg/mL
  IC80 (µg/ml), TZM-bl pseudovirus neutralization: > 50 µg/mL
